{AminoPEG9} = amino group attached through a PEG9 spacer, used for covalent surface attachment
T1: transcription factor GAL80 (Saccharomyces cerevisiae, UniProt P04387)
T1 sequence (P04387 1-435): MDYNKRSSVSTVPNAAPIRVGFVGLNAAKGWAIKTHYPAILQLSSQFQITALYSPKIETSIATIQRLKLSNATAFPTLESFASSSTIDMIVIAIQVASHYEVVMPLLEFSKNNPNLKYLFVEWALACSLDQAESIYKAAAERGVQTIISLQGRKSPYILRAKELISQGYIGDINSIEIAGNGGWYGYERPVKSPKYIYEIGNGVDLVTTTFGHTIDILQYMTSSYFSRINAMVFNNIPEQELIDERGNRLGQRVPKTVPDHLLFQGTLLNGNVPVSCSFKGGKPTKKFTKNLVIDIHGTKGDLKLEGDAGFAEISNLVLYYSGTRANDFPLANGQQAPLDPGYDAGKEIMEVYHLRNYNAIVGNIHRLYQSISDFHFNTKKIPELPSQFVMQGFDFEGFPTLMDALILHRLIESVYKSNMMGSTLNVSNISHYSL

B1: Consensus DNA: covalently bound DNA containing three repeats of the consensus sequence for the transcription factor AP-1 (c-JUN), hybridized to Texas Red complement (nucleic acid)
DNA: CGCTTGATGAGTCAGCCGGAACGCTTGATGAGTCAGCCGGAACGCTTGATGAGTCAGCCGGAAGCTTCCGGTAAATTT
modifications: DNA, 5' {AminoPEG9}, backbone not given here; further chemistry not fully specified

Key:
[1] = molecular target: T1, transcription factor GAL80; conditions: template peptide of the array; cited from earlier work
[2] = molecular target: T2, transcription factor AP-1 (c-JUN) (Homo sapiens, UniProt P05412); test: rhAP1 binding to DNA grafted polymer microstructures, in situ trypsin digest and MALDI-MS peptide mass fingerprinting; conditions: rhAP1 0.3 ug/ml 1:1 with buffer Z, 0.5 hrs at RT and 2 hrs at 4 C; identified by MALDI-MS, not in control
T2 construct: purchased Promega Corp (Madison, Wis.)
Experimental: This array was then washed with sterile water and a 1:1 mixture of rhAP1 protein 0.3 μg/ml and buffer Z (25 mM HEPES K+ pH 7.8, 12.5 mM MgCl2, 1 μM DTT, 20% glycerol, 0.1 Nonidet p40) and 2 μL was spotted onto all 5 microstructures. This was allowed to bind for 0.5 hrs at RT and 2 hrs at 4 C and then rinsed with sterile water at 4° C. The fluorescence was rechecked and the treatment spots were still fluorescent. 2 μL of a 1:100 dilution of 10 μg/mL trypsin in 25 mM ammonium carbonate and sterile water was spotted onto one feature and the array was left at 37° C. overnight.
A slightly subsaturated solution of α-cyano-4-hydroxycinnamic acid solution of 1:2 acetonitrile:water with 1% TFA was spotted, 2 μL per feature on to the array and left in hybridization chamber for 45 min. This was then dried and spotted with 1 μL of a saturated solution of α-cyano-4-hydroxycinnamic acid in 1:1 acetonitile:water with 0.1% TFA. […] Ions were only detected coming from the trypsin digest array element.
This array was then washed with sterile water and a 1:1 mixture of rhAP1 protein 0.3 ug/ml and buffer Z (25 mM HEPES K+ pH 7.8, 12.5 mM MgCl2, 1 uM DTT, 20% glycerol, 0.1 Nonidet p40) and 2 uL was spotted onto all 5 microstructures. […] The fluorescence was rechecked and the treatment spots were still fluorescent. […]

T2 sequence (P05412 whole entry): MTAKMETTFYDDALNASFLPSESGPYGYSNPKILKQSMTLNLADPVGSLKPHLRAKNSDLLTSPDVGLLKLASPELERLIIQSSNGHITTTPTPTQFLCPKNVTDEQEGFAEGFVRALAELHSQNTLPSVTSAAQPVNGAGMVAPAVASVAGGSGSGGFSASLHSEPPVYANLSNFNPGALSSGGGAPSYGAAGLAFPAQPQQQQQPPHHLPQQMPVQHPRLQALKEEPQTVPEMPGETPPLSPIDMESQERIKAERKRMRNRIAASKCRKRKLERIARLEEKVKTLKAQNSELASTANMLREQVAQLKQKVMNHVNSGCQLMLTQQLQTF

Molecule	binding to transcription factor GAL80 [1]	binding of transcription factor AP-1 to immobilized consensus DNA [2]
EGEWTEGKLSLR [template for 8,000 array variants substituted at positions 1, 3, 6]	known to bind	
B1		bind the transcription factor AP-1

From US20100056392A1, “MICROSTRUCTURE AND MICRODOMAIN MICROARRAYS, METHODS OF MAKING SAME AND USES THEREOF” (priority 2005, published 2010)
